Three molecules from patent US20250333441A1, “POLYPEPTIDE INHIBITORS AND USES THEREOF” (Neuracle Science Co., Ltd., priority 2021, published 2025) can be followed below.

The assay concerns the target FAM19A5 protein (Homo sapiens, UniProt Q7Z5A7). Kind of assay: Co-immunoprecipitation of FLAG-tagged LRRC4 family constructs with recombinant FAM19A5 in HEK293 cells. The assay is classed as binding. The conditions noted are these: HEK293 cells expressing FLAG-tagged construct, recombinant FAM19A5 protein (1 μM) 30 minutes; anti-FLAG immunoprecipitation. On the procedure: To better understand the interaction between FAM19A5 and members of the LRRC4 protein family, HEK293 cells were modified to express a FLAG-tagged member of the LRRC4 protein family, i.e., LRRC4C protein, LRRC4 protein, or LRRC4B protein. Then, the HEK293 cells or primary cortical neurons were treated with recombinant FAM19A5 protein (1 μM) for 30 minutes, and the binding between FAM19A5 protein and the different members of the LRRC4 protein family was assessed using both co-immunoprecipitation and immunofluorescence assays.
For the co-immunoprecipitation assay, cell lysates from the different FAM19A5-treated HEK293 cells were collected and immunoprecipitated with an anti-FLAG antibody, anti-FAM19A5 (1-65) antibody, or a human IgG antibody (control). Immunoprecipitated proteins were immunoblotted with anti-FLAG and anti-FAM19A5 (3-2) antibodies. For the immunofluorescence assay, the HEK293 cells treated with the recombinant FAM19A5 protein were immunostained with anti-FAM19A5 (3-2) (to detect FAM19A5 protein expression) and anti-FLAG antibodies (to detect member of the LRRC4 protein family). The primary cortical neurons treated with the recombinant FAM19A5 protein were immunostained with anti-FAM19A5 (3-2) and anti-LRRC4B antibodies. The nuclei were stained with Hoechst33342 (blue).
To determine the specific motif or domain of the LRRC4B protein that is responsible for the binding to a FAM19A5 protein, various FLAG-tagged LRRC4B deletion constructs were generated (see Table 6 below). HEK293 cells were transfected with the different deletion constructs and then treated with recombinant FAM19A5 protein as described in Example 1. Then, the cell lysates from the different HEK293 cells were immunoprecipitated with the anti-FLAG antibody. The immunoprecipitated proteins were immunoblotted with anti-FLAG and anti-FAM19A5 (3-2) antibodies.
As described in Example 2, all members of the LRRC4 protein family were capable of binding to FAM19A5 protein to varying degrees. Therefore, to compare the bindings domains, the amino acid sequences of the LRRC4B, LRRC4, and LRRC4C proteins were aligned. […] Therefore, to assess whether the corresponding positions of LRRC4 and LRRC4C were important in the binding of these proteins to FAM19A5 protein, cDNAs encoding either (i) LRRC4C protein fragment (amino acids 354-527 of SEQ ID NO: 3; SEQ ID NO: 66) or (ii) LRRC4 protein fragment (amino acids 353-527 of SEQ ID NO: 1; SEQ ID NO: 67) were constructed (see Table 7). HEK293 cells were transfected to express either of the protein fragments and then treated with recombinant FAM19A5 protein as described in Example 1. Then, the cell lysates from the different HEK293 cells were immunoprecipitated with the anti-FLAG antibody. The immunoprecipitated proteins were immunoblotted with anti-FLAG and anti-FAM19A5 (3-2) antibodies.

FAM19A5 protein, sequence (Q7Z5A7 44-132): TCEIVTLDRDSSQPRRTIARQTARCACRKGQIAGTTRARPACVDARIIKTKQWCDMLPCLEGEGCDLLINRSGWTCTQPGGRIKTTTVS

B1: LRRC4B (36-713): FLAG-tagged LRRC4B deletion construct, amino acids 36-713 of SEQ ID NO: 2 (SEQ ID NO: 52) (protein)
chain: AGGGGVAVTSAAGGGSPPATSCPVACSCSNQASRVICTRRDLAEVPASIPVNTRYLNLQENGIQVIRTDTFKHLRHLEILQLSKNLVRKIEVGAFNGLPSLNTLELFDNRLTTVPTQAFEYLSKLRELWLRNNPIESIPSYAFNRVPSLRRLDLGELKRLEYISEAAFEGLVNLRYLNLGMCNLKDIPNLTALVRLEELELSGNRLDLIRPGSFQGLTSLRKLWLMHAQVATIERNAFDDLKSLEELNLSHNNLMSLPHDLFTPLHRLERVHLNHNPWHCNCDVLWLSWWLKETVPSNTTCCARCHAPAGLKGRYIGELDQSHFTCYAPVIVEPPTDLNVTEGMAAELKCRTGTSMTSVNWLTPNGTLMTHGSYRVRISVLHDGTLNFTNVTVQDTGQYTCMVTNSAGNTTASATLNVSAVDPVAAGGTGSGGGGPGGSGGVGGGSGGYTYFTTVTVETLETQPGEEALQPRGTEKEPPGPTTDGVWGGGRPGDAAGPASSSTTAPAPRSSRPTEKAFTVPITDVTENALKDLDDVMKTTKIIIGCFVAITFMAAVMLVAFYKLRKQHQLHKHHGPTRTVEIINVEDELPAASAVSVAAAAAVASGGGVGGDSHLALPALERDHLNHHHYVAAAFKAHYSSNPSGGGCGGKGPPGLNSIHEPLLFKSGSKENVQETQI
modifications: FLAG tag
In the case of B1, the “binding to FAM19A5 protein (co-immunoprecipitation)” value (shortened to “binding to FAM19A5 protein”) is reported as “able to bind to the FAM19A5 protein”.

B2: LRRC4B (157-713): FLAG-tagged LRRC4B deletion construct, amino acids 157-713 of SEQ ID NO: 2 (SEQ ID NO: 53) (protein)
chain: LSKLRELWLRNNPIESIPSYAFNRVPSLRRLDLGELKRLEYISEAAFEGLVNLRYLNLGMCNLKDIPNLTALVRLEELELSGNRLDLIRPGSFQGLTSLRKLWLMHAQVATIERNAFDDLKSLEELNLSHNNLMSLPHDLFTPLHRLERVHLNHNPWHCNCDVLWLSWWLKETVPSNTTCCARCHAPAGLKGRYIGELDQSHFTCYAPVIVEPPTDLNVTEGMAAELKCRTGTSMTSVNWLTPNGTLMTHGSYRVRISVLHDGTLNFTNVTVQDTGQYTCMVTNSAGNTTASATLNVSAVDPVAAGGTGSGGGGPGGSGGVGGGSGGYTYFTTVTVETLETQPGEEALQPRGTEKEPPGPTTDGVWGGGRPGDAAGPASSSTTAPAPRSSRPTEKAFTVPITDVTENALKDLDDVMKTTKIIIGCFVAITFMAAVMLVAFYKLRKQHQLHKHHGPTRTVEIINVEDELPAASAVSVAAAAAVASGGGVGGDSHLALPALERDHLNHHHYVAAAFKAHYSSNPSGGGCGGKGPPGLNSIHEPLLFKSGSKENVQETQI
modifications: FLAG tag
As to B2, the “binding to FAM19A5 protein” value is listed as “able to bind to the FAM19A5 protein”.

B3: LRRC4B (230-713): FLAG-tagged LRRC4B deletion construct, amino acids 230-713 of SEQ ID NO: 2 (SEQ ID NO: 54) (protein)
chain: RLEELELSGNRLDLIRPGSFQGLTSLRKLWLMHAQVATIERNAFDDLKSLEELNLSHNNLMSLPHDLFTPLHRLERVHLNHNPWHCNCDVLWLSWWLKETVPSNTTCCARCHAPAGLKGRYIGELDQSHFTCYAPVIVEPPTDLNVTEGMAAELKCRTGTSMTSVNWLTPNGTLMTHGSYRVRISVLHDGTLNFTNVTVQDTGQYTCMVTNSAGNTTASATLNVSAVDPVAAGGTGSGGGGPGGSGGVGGGSGGYTYFTTVTVETLETQPGEEALQPRGTEKEPPGPTTDGVWGGGRPGDAAGPASSSTTAPAPRSSRPTEKAFTVPITDVTENALKDLDDVMKTTKIIIGCFVAITFMAAVMLVAFYKLRKQHQLHKHHGPTRTVEIINVEDELPAASAVSVAAAAAVASGGGVGGDSHLALPALERDHLNHHHYVAAAFKAHYSSNPSGGGCGGKGPPGLNSIHEPLLFKSGSKENVQETQI
modifications: FLAG tag
Consider B3, for which the “binding to FAM19A5 protein” value is “able to bind to the FAM19A5 protein”.
